One block for each molecule: values may come before it. Positions of bridges follow the written chain, without caps; N, C: chain ends. Non-standard residues stand in square brackets, D forms with d. Residues, ends and D or L forms follow the SMILES beside them.
Key:
Gαs S275L = Gαs S275L (Homo sapiens, UniProt P63092, S275L); test: Gαs inhibition with mutation in the cyclic peptide binding site (FIGS. 6A-6B); type: biochemical; conditions: in the assay tested
WT Gαs = WT Gαs (Homo sapiens, UniProt P63092); test: Gαs inhibition in the presence of Gβγ (FIG. 4, FIGS. 6A-6B); type: biochemical
R201C Gαs/GDP = R201C Gαs/GDP (Homo sapiens, UniProt P63092, R201C); test: Binding to R201C Gαs/GDP (FIGS. 7A-7B)
R201H Gαs = R201H Gαs (Homo sapiens, UniProt P63092, R201H); test: Gαs mutant inhibition in the presence of Gβγ (FIGS. 6A-6B); type: biochemical
R201C Gαs = R201C Gαs (Homo sapiens, UniProt P63092, R201C); test: Gαs mutant inhibition (FIGS. 1A-1B, FIGS. 6A-6B); type: biochemical; conditions: in the presence of Gβγ
[1] = target: T1, Biotinylated Avi-tagged WT Gαs (residues 7-380 of the short isoform of human Gαs), GDP-bound (human, UniProt P63092 7-394, biotin on the Avi tag (BirA)); test: TR-FRET competition: biotinylated GDP-bound Gαs WT against His-Gβγ(C68S)
T1 construct: Loaded with GDP; Same polypeptide as m7, other nucleotide state; also called biotinylated Gαs WT
Experimental: (§1) Biotinylated avi-Gαs (6-end, WT) and avi-Gαi (FL, WT) were diluted to 32 nM (8×) using assay buffer (1× PBS 7.4, 2 mM DTT, 0.1% BSA, 2 mM MgCl₂, 0.05% Tween plus 0.5 mM GDP), followed by mixing with a same volume of 8× streptavidin XL665 stock (32 nM in the assay buffer). 8× His-Gβ/γ (C68S) stock (16 nM) and 8× anti-6His-Tb cryptate stock (0.4 μg/mL) were added into the Gα/XL665 mixtures. Finally, 2× stocks of cyclic peptides were added with the protein mixtures. After incubation at room temperature for 2 hour at room temperature. […] FRET Signal was calculated as the ratio of [Read B]/[Read A].

[2] = target: WT Gαs (purified, steady-state GTPase, GDP dissociation and GTPγS binding assays) (UniProt P63092-2 7-380); test: cell-based or functional assay
[3] = target: T1, Biotinylated Avi-tagged WT Gαs …; test: TR-FRET competition: biotinylated Gαs or Gαi (GDP) against His-Gβγ(C68S)
Experimental: as §1

[4] = target: WT Gαs (purified, adenylyl cyclase activity assay) (UniProt P63092-2 7-380); test: cell-based or functional assay
[5] = target: WT Gαs in HEK293 cell membranes, P63092; test: cell-based or functional assay
[6] = target: T2, Biotinylated His/Avi-tagged Gαs used in the RaPID selection, GppNHp-bound (human, UniProt P63092 7-394, biotin on the Avi tag (BirA co-expressed)); test: RaPID comparison selection: peptide-mRNA-cDNA complexes on Gαs-immobilized streptavidin beads, qPCR and sequencing
T2 construct: Immobilized on streptavidin magnetic beads

[7] = target: T3, Biotinylated Avi-tagged Gαi1 (residues 2-354 of human Gαi1), GDP-bound (human, UniProt P63096 2-354, biotin on the Avi tag (BirA)); test: BLI, biotinylated Gα on streptavidin biosensors
T3 construct: Loaded with GDP; also called avi-Gαi (FL, WT)
Experimental: (§2) BLI experiments were performed using an OctetRED384 instrument from ForteBio. All experiments were performed at 25° C. using BLI buffer (10 mM HEPES pH 7.4, 150 mM NaCl, 1 mM MgCl₂, 0.05% Tween-20, 0.1% DMSO, 0.2 mM GppNHp or GDP). Cyclic peptides were diluted to a series of concentrations in BLI buffer plus 10 μM Biotin. Assays were conducted in Greiner 384well, black, flat bottom polypropylene plates containing the protein solutions, BLI buffer plus 10 μM Biotin for dissociation, and serial dilutions of cyclic peptides to be tested.
(§3) Biotinylated proteins were immobilized on Streptavidin biosensors by dipping sensors into plate wells containing protein solutions at a concentration of 100-150 nM. Protein loading is around 2-3 nm. Sensors loaded with proteins were moved and dipped into wells with BLI buffer plus 10 μM Biotin to block unlabeled Streptavidin. […] Association and dissociation times were carefully determined to ensure full association and dissociation.
(§4) Raw kinetic data collected were processed with the Data Analysis software provided by the manufacturer using single reference subtraction in which buffer-only reference was subtracted (For GN13 analysis). […] The resulting data were analyzed based on a 1:1 binding model from which kₒₙ and koff values were obtained and then Kd values were calculated.

[8] = target: T4, Biotinylated Avi-tagged Gαi1 (residues 2-354 of human Gαi1), GppNHp-bound (human, UniProt P63096 2-354, biotin on the Avi tag (BirA)); test: BLI, biotinylated Gα on streptavidin biosensors
T4 construct: Loaded with GppNHp; Same polypeptide as m9, other nucleotide state
Experimental: as §2, §3, §4

T1 sequence (P63092 other isoform, or with tags, fused parts or gaps limits assumed): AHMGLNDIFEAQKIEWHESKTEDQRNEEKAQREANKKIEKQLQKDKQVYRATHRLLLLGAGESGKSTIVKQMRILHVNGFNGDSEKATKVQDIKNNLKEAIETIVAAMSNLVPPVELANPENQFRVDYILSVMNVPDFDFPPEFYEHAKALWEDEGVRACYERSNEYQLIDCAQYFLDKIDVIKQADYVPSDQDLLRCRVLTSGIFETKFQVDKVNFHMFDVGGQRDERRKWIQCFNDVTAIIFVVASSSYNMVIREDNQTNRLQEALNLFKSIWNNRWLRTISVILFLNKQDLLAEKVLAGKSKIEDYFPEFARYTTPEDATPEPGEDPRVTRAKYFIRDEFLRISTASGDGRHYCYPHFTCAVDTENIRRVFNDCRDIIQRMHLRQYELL
WT Gαs, sequence (P63092 whole entry): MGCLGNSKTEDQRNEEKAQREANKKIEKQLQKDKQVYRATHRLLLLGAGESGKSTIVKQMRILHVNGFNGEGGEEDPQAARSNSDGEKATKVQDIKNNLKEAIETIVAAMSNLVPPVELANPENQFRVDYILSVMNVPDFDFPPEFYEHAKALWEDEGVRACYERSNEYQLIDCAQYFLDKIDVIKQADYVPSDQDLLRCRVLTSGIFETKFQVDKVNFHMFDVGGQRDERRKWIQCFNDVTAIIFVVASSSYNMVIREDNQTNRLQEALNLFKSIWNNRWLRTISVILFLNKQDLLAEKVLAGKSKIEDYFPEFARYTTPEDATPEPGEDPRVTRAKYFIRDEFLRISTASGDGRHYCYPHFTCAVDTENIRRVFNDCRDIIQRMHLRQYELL
R201C Gαs, sequence (P63092 whole entry R201C, the tested form may be a part, canonical isoform): as the sequence (P63092 whole entry) above, with R201C counted along it
R201C Gαs/GDP, sequence (P63092 whole entry R201C): as the sequence (P63092 whole entry) above, with R201C counted along it
T4 sequence (P63096 other isoform, or with tags, fused parts or gaps limits assumed): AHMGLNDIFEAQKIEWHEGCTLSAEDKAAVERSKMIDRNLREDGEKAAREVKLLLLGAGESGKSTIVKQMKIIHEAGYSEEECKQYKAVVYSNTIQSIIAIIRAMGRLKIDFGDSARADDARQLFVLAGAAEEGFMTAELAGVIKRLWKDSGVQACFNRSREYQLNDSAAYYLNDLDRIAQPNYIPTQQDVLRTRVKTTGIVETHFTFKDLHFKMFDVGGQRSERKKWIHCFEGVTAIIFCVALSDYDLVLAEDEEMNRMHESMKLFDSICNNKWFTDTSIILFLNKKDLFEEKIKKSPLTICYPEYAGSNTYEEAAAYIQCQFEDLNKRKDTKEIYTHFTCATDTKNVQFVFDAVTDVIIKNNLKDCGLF
T3 sequence (P63096 other isoform, or with tags, fused parts or gaps limits assumed): as above
R201H Gαs, sequence (P63092 whole entry R201H): as the sequence (P63092 whole entry) above, with R201H counted along it
WT Gαs in HEK293 cell membranes, P63092, sequence (P63092 2-394): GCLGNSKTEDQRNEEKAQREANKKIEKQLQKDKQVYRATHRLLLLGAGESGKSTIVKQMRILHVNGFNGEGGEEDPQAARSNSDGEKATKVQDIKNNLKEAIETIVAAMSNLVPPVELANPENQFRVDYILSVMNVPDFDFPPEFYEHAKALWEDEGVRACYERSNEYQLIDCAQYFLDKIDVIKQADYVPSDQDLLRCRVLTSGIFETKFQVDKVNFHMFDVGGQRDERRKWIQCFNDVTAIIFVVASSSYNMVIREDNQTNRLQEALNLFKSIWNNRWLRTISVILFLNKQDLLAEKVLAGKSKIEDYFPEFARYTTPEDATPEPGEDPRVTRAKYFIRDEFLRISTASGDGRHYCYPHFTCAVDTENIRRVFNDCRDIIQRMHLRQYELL
Gαs S275L, sequence (P63092 whole entry S275L): as the sequence (P63092 whole entry) above, with S275L counted along it
WT Gαs (purified, adenylyl cyclase activity assay), sequence (P63092 other isoform, or with tags, fused parts or gaps limits assumed): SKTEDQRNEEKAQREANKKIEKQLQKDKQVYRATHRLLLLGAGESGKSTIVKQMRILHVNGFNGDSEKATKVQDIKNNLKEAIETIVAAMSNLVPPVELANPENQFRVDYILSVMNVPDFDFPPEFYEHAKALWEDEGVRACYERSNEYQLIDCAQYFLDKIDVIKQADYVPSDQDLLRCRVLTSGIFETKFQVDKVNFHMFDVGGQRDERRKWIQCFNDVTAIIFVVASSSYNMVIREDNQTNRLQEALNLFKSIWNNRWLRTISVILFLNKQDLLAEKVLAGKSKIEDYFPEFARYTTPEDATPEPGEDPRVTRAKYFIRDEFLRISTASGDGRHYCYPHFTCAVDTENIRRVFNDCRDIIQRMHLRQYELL
T2 sequence (P63092 other isoform, or with tags, fused parts or gaps limits assumed): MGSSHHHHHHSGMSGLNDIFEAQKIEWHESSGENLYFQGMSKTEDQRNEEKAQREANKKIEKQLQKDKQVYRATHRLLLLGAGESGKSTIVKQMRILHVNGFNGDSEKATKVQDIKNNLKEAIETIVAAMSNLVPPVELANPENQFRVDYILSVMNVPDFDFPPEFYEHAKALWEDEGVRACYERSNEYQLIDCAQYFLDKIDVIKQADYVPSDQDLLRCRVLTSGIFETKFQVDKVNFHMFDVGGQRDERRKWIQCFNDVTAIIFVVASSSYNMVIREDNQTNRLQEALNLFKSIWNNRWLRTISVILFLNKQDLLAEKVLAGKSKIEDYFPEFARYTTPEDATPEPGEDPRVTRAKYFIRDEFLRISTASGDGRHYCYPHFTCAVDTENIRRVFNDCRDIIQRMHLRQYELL

- inhibition with S275L mutation in the cyclic peptide binding site (Gαs S275L): blocked
- inhibition of WT Gαs (WT Gαs): potently inhibits
- binding to R201C Gαs/GDP (R201C Gαs/GDP): increased binding
- inhibition of R201H Gαs (R201H Gαs): inhibits
- inhibition of R201C Gαs (R201C Gαs): inhibits
Molecule: CC[C@H](C)[C@@H]1NC(=O)[C@H](Cc2c[nH]cn2)NC(=O)[C@H](Cc2ccc(O)cc2)NC(=O)[C@H]([C@@H](C)CC)NC(=O)[C@H](CO)NC(=O)[C@H](CCC(N)=O)NC(=O)[C@H](Cc2ccccc2)NC(=O)[C@@H](Cc2ccc(O)cc2)NC(=O)CSC[C@@H](C(N)=O)NC(=O)[C@H](CC(C)C)NC(=O)[C@H](CCC(=O)O)NC(=O)CNC(=O)[C@H](Cc2c[nH]c3ccccc23)NC1=O [GR6] ({CH2CO}-[dY]FQSIYHIWGELC-NH2; thioether N-13)

- IC50 [1]: 18.4 nM
- IC50, inhibition of Gαs steady-state GTPase activity [2]: 1150 nM
- fold selectivity for Gαs over Gαi [3]: ≥ 100 fold
B1: GD20 (peptide)
peptide: {CH2CO}-[dY]LITFRQWAFNLPCG-NH2
modifications: thioether N-14
SMILES: CC[C@H](C)[C@@H]1NC(=O)[C@H](CC(C)C)NC(=O)[C@@H](Cc2ccc(O)cc2)NC(=O)CSC[C@@H](C(=O)NCC(N)=O)NC(=O)[C@@H]2CCCN2C(=O)[C@H](CC(C)C)NC(=O)[C@H](CC(N)=O)NC(=O)[C@H](Cc2ccccc2)NC(=O)[C@H](C)NC(=O)[C@H](Cc2c[nH]c3ccccc23)NC(=O)[C@H](CCC(N)=O)NC(=O)[C@H](CCCNC(=N)N)NC(=O)[C@H](Cc2ccccc2)NC(=O)[C@H]([C@@H](C)O)NC1=O
notes: also called cyclic peptide GD20

- IC50, inhibition of Gαs-mediated adenylyl cyclase activation (cAMP production, reconstituted Gαs activity assay) [4]: 4150 nM
- IC50, inhibition of ISO-stimulated Gαs activity (cAMP) in HEK293 cell membranes [5]: 12200 nM
- fold selectivity for GppNHp-bound over GDP-bound Gαs [6]: > 100 fold
- binding result [7]: no binding
- binding result [8]: no binding
B2: GN13 (peptide)
peptide: {CH2CO}-[dY]FESVYAIWGTLCG-NH2
modifications: thioether N-13
SMILES: CC[C@H](C)[C@@H]1NC(=O)[C@H](C)NC(=O)[C@H](Cc2ccc(O)cc2)NC(=O)[C@H](C(C)C)NC(=O)[C@H](CO)NC(=O)[C@H](CCC(=O)O)NC(=O)[C@H](Cc2ccccc2)NC(=O)[C@@H](Cc2ccc(O)cc2)NC(=O)CSC[C@@H](C(=O)NCC(N)=O)NC(=O)[C@H](CC(C)C)NC(=O)[C@H]([C@@H](C)O)NC(=O)CNC(=O)[C@H](Cc2c[nH]c3ccccc23)NC1=O
notes: Residue numbers in the text (E3, V5, I8, W9, T11) fit this order; In the RaPID selections the peptide carried a GSGSGS linker, puromycin and its mRNA/cDNA; also called cyclic peptide GN13

Source: US20240336657A1, “G-ALPHA-S PEPTIDE INHIBITORS AND USES THEREOF” (The Regents of the University of California, priority 2021, published 2024)
